# Data reported in PMC7949094, “Pantoea stewartii WceF is a glycan biofilm-modifying enzyme with a bacteriophage tailspike-like fold” (The Journal of Biological Chemistry, 2021).
# B1: bacteriophage P22 tailspike protein (natural protein)
# chain: YDPDQYSIEADKKFKYSVKLSDYPTLQDAASAAVDGLLIDRDYNFYGGETVDFGGKVLTIECKAKFIGDGNLIFTKLGKGSRIAGVFMESTTTPWVIKPWTDDNQWLTDAAAVVATLKQSKTDGYQPTVSDYVKFPGIETLLPPNAKGQNITSTLEIRECIGVEVHRASGLMAGFLFRGCHFCKMVDANNPSGGKDGIITFENLSGDWGKGNYVIGGRTSYGSVSSAQFLRNNGGFERDGGVIGFTSYRAGESGVKTWQGTVGSTTSRNYNLQFRDSVVIYPVWDGFDLGADTDMNPELDRPGDYPITQYPLHQLPLNHLIDNLLVRGALGVGFGMDGKGMYVSNITVEDCAGSGAYLLTHESVFTNIAIIDTNTKDFQANQIYISGACRVNGLRLIGIRSTDGQGLTIDAPNSTVSGITGMVDPSRINVANLAEEGLGNIRANSFGYDSAAIKLRIHKLSKTLDSGALYSHINGGAGSGSAYTQLTAISGSTPDAVSLKVNHKDCRGAEIPFVPDIASDDFIKDSSCFLPYWENNSTSLKALVKKPNGELVRLTLATL
# notes: also called P22TSP; source: purified
# B2: Pantoea stewartii WceF (residues 29-736, lacking the Tat signal peptide) (enzyme)
# chain: KNTGLALKSVDATAIPKGDVPILTPENVYAMPPQFWQNFQGKLWIGRAGSDARQPGNQIPVFLRDANGNLAQITQPITLNKGNFDQFVKDNAALIANPSHAMALEDSNGQTVFNIPDVSQPGQAAFSQRLAQPAGYQLIGEIPSVDDLRKTRPLFEGAKIKLKSWHPGLEVGGGEFVGSFQPAQDDQGVIFSGDGFHWRRVVDDYNRLSLFDFGAIADGKTDSAPAIKAMYQWSQQSDQPICVQFPAGTFFVTGCDFGEEQRRFFRISGAMVNFGYFPATTIVSDGQSPFVFEVSARWVEISNLIFNGNTDTKPNRQGLLRNTCPGGQFFRGACLRFNNVGGTALSLLDTLDCKIDQWYASACTGDVIQAGWSGQKKGNWDHSTAIELSNFNAQHCKGGKVLNLPRCSQSLIHNGWIEHCDNPGDISNGQWIIDALSLEDCKNPLIAWHSRLNTRQTNLQSGSWIDNSEQGDRWLSAWEMGSTRVESYGVAIDGSLKYNYLTSRWLLENNTSQPVWYELANLYSPTVGDSWEIEVFGQSQFNNGTDSEPLMNLIDGRNTGGRAVIHVQRKKDHAEASWSAEGSSPVLDVRYVAKTDTDTQVFIRLAGWTPSAAIMIKSTAKDRFVTGRCARVDAKMAKATPDSGSHAAPQRFSLHNGKAGVGANEQGDLLLASRALSADNVDTRKPEGFVSVVINGKTVALPYFAIKA
# notes: WceF of Pantoea stewartii subsp. stewartii DSM 30176, amplified from genomic DNA; recombinant construct residues 29-736 without the N-terminal 28 amino acids of the Tat signal peptide (the methods say aa 28-736); residues 34-736 resolved in the electron density; His6 tag followed by a TEV site, cleaved off for the purified protein; The forward primer encodes ...ENLYFQG-AKNTGL, so a glycine …
# B3: bacteriophage HK620 tailspike protein (natural protein)
# chain: DPDQFRAIIESPEGAGHVGYQYRRNTGSTMRMVSDVLDERVSLWDFHCDPSGNVIQPGPNVDSRQYLQAAIDYVSSNGGGTITIPAGYTWYLGSYGVGGIAGHSGIIQLRSNVNLNIEGRIHLSPFFDLKPFQVFVGFDNGDPASSGNLENCHIYGHGVVDFGGYEFGASSQLRNGVAFGRSYNCSVTGITFQNGDVTWAITLGWNGYGSNCYVRKCRFINLVNSSVNADHSTVYVNCPYSGVESCYFSMSSSFARNIACSVELHQHDTFYRGSTVNGYCRGAYVVMHAAEAAGAGSYAYNMQVENNIAVIYGQFVILGSDVTATVSGHLNDVIVSGNIVSIGERAAFSAPFGAFIDIGPDNSGASNVQDIQRVLVTGNSFYAPANITDSAAITLRANLNGCTFIANNFDCRYMVYNAPGTTSPVVQNLVWDKSNVIGGTHANQRAGQNLFDMQFASVVNSTIEVQLSCEDLSMFSCILFPASCQLSYSKITVDSAWTKSMSNTAVFEGNQQAGANVYVSYPATVNLTSYNTQGAVPFFSTDTNYAWVTSAYSLSINENLDFSPPATYTNKANGQLVGVGYNEIGGVRSVSVRLMLQRQV
# notes: also called HK620TSP; source: purified
# Experiments:
# [1] = molecular target: the molecule itself; assay: SDS-PAGE without heating; purified HK620TSP and P22TSP in 2% (w/v) SDS, with or without heating for 5 min
# [2] = molecular target: the molecule itself; assay: SEC; size-exclusion chromatography of purified WceF (Fig. S2); conditions not shown
# SDS-PAGE without heating = molecular target: the molecule itself; assay: SDS-PAGE without heating
protein,measurement,setting,value
B1,stoichiometry N,[1],3
B2,stoichiometry N,[2],3
B3,stoichiometry N,SDS-PAGE without heating,3
